The term stoichiometry N denotes the number of molecules, sites or subunits per partner or assembly.

This passage reports stoichiometry N results from PMC11067744.

The target of this assay is YenB (UniProt B6A880). The experiment in a line: SEC-MALS. (In general: In gel filtration, larger molecules generally elute earlier.)
Sequence of UniProt B6A880 (B6A880 whole entry): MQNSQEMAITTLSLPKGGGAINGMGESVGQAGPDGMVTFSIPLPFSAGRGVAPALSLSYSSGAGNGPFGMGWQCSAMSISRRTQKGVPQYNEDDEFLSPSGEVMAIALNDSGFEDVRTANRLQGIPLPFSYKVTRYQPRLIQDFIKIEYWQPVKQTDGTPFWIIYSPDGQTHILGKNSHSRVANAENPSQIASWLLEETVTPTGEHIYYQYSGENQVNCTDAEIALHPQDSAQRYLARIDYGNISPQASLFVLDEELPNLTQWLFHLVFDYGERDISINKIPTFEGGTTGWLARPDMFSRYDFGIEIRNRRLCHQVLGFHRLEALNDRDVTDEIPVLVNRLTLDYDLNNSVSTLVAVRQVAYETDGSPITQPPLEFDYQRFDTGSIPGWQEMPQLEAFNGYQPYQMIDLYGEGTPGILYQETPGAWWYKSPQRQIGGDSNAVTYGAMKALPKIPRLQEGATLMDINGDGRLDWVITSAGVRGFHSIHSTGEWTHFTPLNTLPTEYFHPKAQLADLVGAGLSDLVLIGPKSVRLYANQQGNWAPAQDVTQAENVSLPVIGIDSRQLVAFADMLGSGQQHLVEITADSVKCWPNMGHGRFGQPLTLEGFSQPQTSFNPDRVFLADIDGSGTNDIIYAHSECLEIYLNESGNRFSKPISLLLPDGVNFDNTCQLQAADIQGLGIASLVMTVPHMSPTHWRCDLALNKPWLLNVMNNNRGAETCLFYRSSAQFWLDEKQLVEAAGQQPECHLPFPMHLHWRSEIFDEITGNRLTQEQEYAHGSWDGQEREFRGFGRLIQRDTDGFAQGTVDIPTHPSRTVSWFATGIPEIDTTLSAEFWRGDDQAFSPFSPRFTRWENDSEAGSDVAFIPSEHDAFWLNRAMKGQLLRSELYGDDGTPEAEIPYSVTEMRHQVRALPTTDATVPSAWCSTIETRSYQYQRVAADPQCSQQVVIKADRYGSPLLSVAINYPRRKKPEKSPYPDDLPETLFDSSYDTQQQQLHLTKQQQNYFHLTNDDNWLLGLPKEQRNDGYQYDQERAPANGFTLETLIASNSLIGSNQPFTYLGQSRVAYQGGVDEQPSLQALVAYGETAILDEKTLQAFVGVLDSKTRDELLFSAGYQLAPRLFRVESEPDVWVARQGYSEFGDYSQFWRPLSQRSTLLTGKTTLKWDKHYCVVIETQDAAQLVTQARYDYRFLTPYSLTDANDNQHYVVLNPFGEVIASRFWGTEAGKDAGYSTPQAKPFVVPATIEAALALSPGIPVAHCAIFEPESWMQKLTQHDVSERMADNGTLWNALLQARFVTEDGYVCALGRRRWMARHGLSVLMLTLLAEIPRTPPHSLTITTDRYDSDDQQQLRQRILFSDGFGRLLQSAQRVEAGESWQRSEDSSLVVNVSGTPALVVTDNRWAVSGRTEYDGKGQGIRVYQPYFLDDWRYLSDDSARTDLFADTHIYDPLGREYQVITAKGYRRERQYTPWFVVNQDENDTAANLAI

YenC3^NTD (domain or fragment) displayed a stoichiometry N of 1.

The substance YenC3^CTD (domain or fragment) registered a stoichiometry N of 1.
